We go through 2 molecules from patent US20250043302A1, “MUTATED HYDROXYPHENYLPYRUVATE DIOXYGENASE POLYPEPTIDE, AND CODING GENE AND USE THEREOF” (BEIJING DABEINONG BIOTECHNOLOGY CO., LTD., priority 2021, published 2025).

Substitutions are numbered along the chain they refer to. Names and notes keep the numbering of the source.

Data set [1] has as its system Arabidopsis thaliana T1 plants. In words: Isoxaflutole tolerance of transgenic Arabidopsis thaliana T1 plants (spray, bleached leaf area grade, damage score).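 For Scores: Weighted damage index from 0 to 100 where higher means more damage.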 The data set is classed as in vivo. An excerpt: T1 transformants were initially selected from the untransformed seeds using a glufosinate selection scheme. The Arabidopsis thaliana T1 plants (AsHPPD-02) into which the AsHPPD-02 nucleotide sequence was introduced, the Arabidopsis thaliana T1 plants (AsHPPDm-F372A-02) into which the AsHPPDm-F372A-02 nucleotide sequence was introduced, the Arabidopsis thaliana T1 plants (AsHPPDm-F383W-02) into which the AsHPPDm-F383W-02 nucleotide sequence was introduced, the Arabidopsis thaliana T1 plants (AsHPPDm-F372A-F383W-02) into which the AsHPPDm-F372A-F383W-02 nucleotide sequence was introduced, the Arabidopsis thaliana T1 plants (DBN11726N) into which the control recombinant expression vector DBN11726N was introduced, and the wild-type Arabidopsis thaliana plants (CK) (18 days after sowing) were sprayed respectively with topramezone at three concentrations (100 g ai/ha (four-fold field concentration, 4×), 200 g ai/ha (eight-fold field concentration, 8×), and 0 g ai/ha (water, 0×)), isoxaflutole at three concentrations (140 g ai/ha (two-fold field concentration, 2×), 280 g ai/ha (four-fold field concentration, 4×), and 0 g ai/ha (water, 0×)), and mesotrione at three concentrations (210 g ai/ha (two-fold field concentration, […]), 420 g ai/ha (four-fold field concentration, 4×), and 0 g ai/ha (water, 0×)), to determine the tolerance of Arabidopsis thaliana to the herbicides. The degree of damage caused by the herbicide was measured for each plant according to the proportion of bleached leaf area (the proportion of bleached leaf area=bleached leaf area/total leaf area×100%) 7 days after spraying (7 DAT): the case where there is basically no bleached phenotype is defined as grade 0, the case where the proportion of bleached leaf area is less than 50% is defined as grade 1, the case where the proportion of bleached leaf area is more than 50% is defined as grade 2, and the case where the proportion of bleached leaf area is 100% grade is defined as grade 3.
According to the method as described above in point 6 of Example 1, the aforementioned Arabidopsis thaliana T1 plants and wild-type Arabidopsis thaliana plants (CK) (18 days after sowing) were sprayed respectively with topramezone at three concentrations (25 g ai/ha (one-fold field concentration, 1×). 100 g ai/ha (four-fold field concentration, 4×), and 0 g ai/ha (water, 0×)), isoxaflutole at three concentrations (35 g ai/ha (half-fold field concentration, 0.5×). 70 g ai/ha (one-fold field concentration, 1×), and 0 g ai/ha (water, 0×)), and mesotrione at three concentrations (52.5 g ai/ha (half-fold field concentration, 0.5×), 105 g ai/ha (one-fold field concentration, 1×), and 0 g ai/ha (water, 0×)) to detect the tolerance of Arabidopsis thaliana to the herbicides.
According to the method as described above in point 6 of Example 1, the aforementioned Arabidopsis thaliana T1 plants and wild-type Arabidopsis thaliana plants (CK) (18 days after sowing) were sprayed with topramezone at three different concentrations (i.e., 100 g ai/ha (four-fold field concentration, 4×), 200 g ai/ha (eight-fold field concentration, 8×) and 0 g ai/ha (water, 0×)), isoxaflutole at three different concentrations (i.e., 140 g ai/ha (two-fold field concentration, 2×), 280 g ai/ha (four-fold field concentration, 4×) and 0 g ai/ha (water, 0×)), and mesotrione at three different concentrations (i.e., 210 g ai/ha (two-fold field concentration, 2×), 420 g ai/ha (four-fold field concentration, 4×) and 0 g ai/ha (water, 0×)) respectively to detect the herbicide tolerance of Arabidopsis thaliana. […]

The subject of data set [2] is Arabidopsis thaliana T1 plants. In words: Mesotrione tolerance of transgenic Arabidopsis thaliana T1 plants (spray, bleached leaf area grade, damage score). The class given is in vivo. On the set-up: Scores: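 damage score 0-100 computed as Σ(N×S)/(T×M)×100 over grades 0-3 with higher meaning more damage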. The essentials:
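T1 transformants selected by glufosinate; 18-day-old plants, with empty-vector and wild-type controls, sprayed with topramezone (25–200 g ai/ha), isoxaflutole (35–280 g ai/ha) or mesotrione (52.5–420 g ai/ha), water as 0×. Bleached leaf area fraction scored at 7 DAT as grades 0–3.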

Setting [3] is: isoxaflutole 140 g ai/ha, number of plants in grade.
[4] abbreviates: isoxaflutole 280 g ai/ha, number of plants in grade.
Where [5] appears, read: mesotrione 210 g ai/ha, number of plants in grade.
Setting [6] is: mesotrione 420 g ai/ha, number of plants in grade.

B1: AsHPPDm-A111T-F383W-02: nucleotide sequence encoding Avena sativa HPPD with A111T+F383W; vector DBN11782 (nucleic acid)
DNA: ATGCCACCTACTCCAGCTACAGCTACTGGTGCTGCTGCTGCTGCCGTTACTCCTGAGCACGCTGCCAGGTCATTCCCCAGGGTGGTTCGCGTGAACCCCAGATCTGATAGGTTCCCAGTTCTGAGCTTCCACCATGTTGAGCTGTGGTGCGCTGATGCTGCTTCTGCTGCTGGCAGGTTCTCTTTCGCTCTTGGTGCTCCACTCGCTGCTAGATCTGATCTGTCTACAGGAAATAGCGCTCATGCCTCACTCCTGCTTCGCTCAGGTGCTTTGGCCTTCCTCTTCACCGCTCCATATGCTCCCCCACCTCAGGAGGCTGCTACTGCTGCTACTACAGCCTCCATTCCAAGCTTCTCAGCTGATGCCGCTAGAACCTTCGCTGCTGCTCATGGACTTGCCGTGAGGTCTGTTGGTGTTCGCGTGGCTGATGCTGCTGAGGCTTTCAGAGTTTCCGTTGCCGGCGGAGCTAGGCCAGCTTTCGCTCCTGCTGATTTGGGACATGGTTTCGGCCTGGCTGAGGTTGAGCTTTACGGTGACGTGGTTCTCCGCTTCGTGTCTTACCCAGATGAGACTGACCTGCCTTTCCTTCCCGGCTTCGAGAGAGTTTCCTCTCCTGGTGCCGTGGATTACGGCCTGACAAGGTTCGACCACGTGGTTGGAAACGTTCCCGAGATGGCTCCAGTGATCGATTACATGAAGGGCTTCCTTGGATTCCATGAGTTCGCCGAGTTCACTGCTGAGGACGTGGGAACCACTGAGTCCGGTTTGAACTCTGTGGTTCTCGCCAACAATTCTGAGGCTGTTTTGCTCCCTCTGAATGAGCCTGTGCATGGAACCAAGAGGAGAAGCCAGATTCAAACTTACCTGGAGTACCACGGTGGCCCTGGAGTTCAGCATATCGCCCTTGCTTCTAATGATGTGTTGCGCACACTCAGAGAGATGCGCGCCAGAACCCCCATGGGAGGTTTCGAGTTCATGGCCCCACCACAGGCTAAGTACTACGAGGGCGTTAGAAGGATTGCTGGAGACGTGTTGAGCGAGGAGCAGATCAAGGAGTGCCAAGAGCTGGGTGTTCTTGTGGATAGGGATGACCAGGGCGTTCTGCTTCAAATTTTCACTAAGCCAGTGGGCGACCGCCCTACATTCTGGCTTGAGATGATTCAAAGAATCGGCTGCATGGAGAAGGATGAGGTTGGACAGGAGTACCAAAAGGGCGGATGCGGTGGCTTCGGAAAGGGTAACTTCAGCGAGTTGTTCAAGTCAATCGAGGACTACGAGAAGAGCCTCGAGGTGAAGCAGTCAGTGGTTGCCCAAAAGTCCTGA
modifications: AsHPPDm-A111T-F383W-02 Nucleotide Sequence
notes: vector DBN11782
As for B1, the Resistance evaluation entry in data set [1] (Table 11, isoxaflutole 140 g ai/ha (2×)) is recorded as “Moderately”; in data set [1] (Table 11, isoxaflutole 280 g ai/ha (4×)), “Poorly resistant”; in data set [2] (Table 12, mesotrione 210 g ai/ha (2×)) it was “Moderately”; in data set [2] (Table 12, mesotrione 420 g ai/ha (4×)), “Poorly resistant”. The “Classification and statistics of the grade of pesticide damage Grade 0” value in data set [1] (Table 11, isoxaflutole 140 g ai/ha (2×), number of plants at grade 0) is 6; in data set [1] (Table 11, isoxaflutole 280 g ai/ha (4×), number of plants at grade 0), 4; in data set [2] (Table 12, mesotrione 210 g ai/ha (2×), number of plants at grade 0), 4; in data set [2] (Table 12, mesotrione 420 g ai/ha (4×), number of plants at grade 0), 0. Besides, the “Classification and statistics of the grade of pesticide damage Grade 1” value in data set [1] (Table 11, isoxaflutole 140 g ai/ha (2×), number of plants at grade 1) worked out at 8; in data set [1] (Table 11, isoxaflutole 280 g ai/ha (4×), number of plants at grade 1) it was 4; in data set [2] (Table 12, mesotrione 210 g ai/ha (2×), number of plants at grade 1) it was 10; in data set [2] (Table 12, mesotrione 420 g ai/ha (4×), number of plants at grade 1), 2. In addition, the “Classification and statistics of the grade of pesticide damage Grade 2” value turned out to be 2 in data set [1] (Table 11, isoxaflutole 140 g ai/ha (2×), number of plants at grade 2); 8 in data set [1] (Table 11, isoxaflutole 280 g ai/ha (4×), number of plants at grade 2); 2 in data set [2] (Table 12, mesotrione 210 g ai/ha (2×), number of plants at grade 2); 13 in data set [2] (Table 12, mesotrione 420 g ai/ha (4×), number of plants at grade 2). Further, the “Classification and statistics of the grade of pesticide damage Grade 3” value in data set [1] (Table 11, isoxaflutole 140 g ai/ha (2×), number of plants at grade 3) is reported as 0; in data set [1] (Table 11, isoxaflutole 280 g ai/ha (4×), number of plants at grade 3) it was 0; in data set [2] (Table 12, mesotrione 210 g ai/ha (2×), number of plants at grade 3), 0; in data set [2] (Table 12, mesotrione 420 g ai/ha (4×), number of plants at grade 3) it was 1. In addition, the Scores in data set [1] (Table 11, isoxaflutole 140 g ai/ha (2×), pesticide damage score) is given as 25; in data set [1] (Table 11, isoxaflutole 280 g ai/ha (4×), pesticide damage score) it was 42; in data set [2] (Table 12, mesotrione 210 g ai/ha (2×), pesticide damage score) it was 29; in data set [2] (Table 12, mesotrione 420 g ai/ha (4×), pesticide damage score), 65.

B2: AsHPPDm-F415W-02: nucleotide sequence encoding Avena sativa HPPD with F415W; vector DBN11791 (nucleic acid)
DNA: B1 DNA with A331G, G1148T, G1149C, T1244G, C1245G
modifications: AsHPPDm-F415W-02 Nucleotide Sequence
notes: vector DBN11791
With B2, the Resistance evaluation result in data set [1] (isoxaflutole 140 g ai/ha) is given as “Moderately”; in data set [1] (isoxaflutole 280 g ai/ha) it was “Poorly”; in data set [2] (mesotrione 210 g ai/ha), “Non-resistant”; in data set [2] (mesotrione 420 g ai/ha), “Non-resistant”. For the same molecule, the Scores was found to be 31 in data set [1] (isoxaflutole 140 g ai/ha), 63 in data set [1] (isoxaflutole 280 g ai/ha), 81 in data set [2] (mesotrione 210 g ai/ha) and 100 in data set [2] (mesotrione 420 g ai/ha). For the same molecule, the “Classification and statistics of the grade of pesticide damage Grade 0” value in data set [1] (setting [3]) was 5; in data set [1] (setting [4]), 0; in data set [2] (setting [5]), 0; in data set [2] (setting [6]) it was 0. Besides, the “Classification and statistics of the grade of pesticide damage Grade 1” value in data set [1] (setting [3]) was 7; in data set [1] (setting [4]), 2; in data set [2] (setting [5]) it was 0; in data set [2] (setting [6]), 0. For the same molecule, the “Classification and statistics of the grade of pesticide damage Grade 2” value in data set [1] (setting [3]) stood at 4; in data set [1] (setting [4]), 14; in data set [2] (setting [5]) it was 9; in data set [2] (setting [6]), 0. The “Classification and statistics of the grade of pesticide damage Grade 3” value in data set [1] (setting [3]) is given as 0; in data set [1] (setting [4]), 0; in data set [2] (setting [5]) it was 7; in data set [2] (setting [6]), 16.
